Among the data in publication PMC11976700, “Engineering of Conserved Sequence Motif 1 Residues in Halohydrin Dehalogenase HheC Simultaneously Enhances Activity, Stability, and Enantioselectivity” (ACS Catalysis, 2025) are Km, kcat and K0.5 values, retold here.

Read-outs that look alike come from different tables or passages of the source.

As usually defined, the Km is the concentration of substrate that gives half-maximal velocity. What is called kcat is the maximal rate divided by the concentration of active sites.

For one series, the system named is T1, OC(CCl)CCl.
T1 construct: E. coli BL21(DE3); homotetramer
Nature of the series: dehalogenation, halide release assay, Michaelis-Menten fit. In kind it is biochemical, Agrobacterium tumefaciens. The settings on record: 25 mM Tris-SO4 pH 7.0, 30 °C. An excerpt:
(§1) dehalogenation, halide release assay, Michaelis-Menten fit on HheC

The next series relates to ClCC1CO1. Nature of the series: purified protein. The settings on record: 2 mM MOPS-SO4 pH 7.0, 30 °C.
Substrate in series [1]: C1CCC2OC2C1
In kind it is biochemical, Ilumatobacter coccineus. The settings on record: 2 mM MOPS-SO4 pH 7.0, 22 °C, fixed azide (100 mM in table footnote, 60 mM in methods).

Substrate in series [2]: C1CCC2OC2C1
The class given is biochemical, Ilumatobacter coccineus. The settings on record: 2 mM MOPS-SO4 pH 7.0, 22 °C, fixed azide (100 mM in table footnote, 60 mM in methods). This is another data set of the same source.

Substrate in series [3]: C1CCC2OC2C1
In kind it is biochemical, Ilumatobacter coccineus. The settings on record: 2 mM MOPS-SO4 pH 7.0, 22 °C, fixed 100 mM azide.

Substrate in series [4]: C1CCC2OC2C1
In kind it is biochemical, Ilumatobacter coccineus. The settings on record: 2 mM MOPS-SO4 pH 7.0, 22 °C, fixed azide (100 mM in table footnote, 60 mM in methods). This is another data set of the same source.

Substrate in the series “purified protein”: ClCC1CO1
Nature of the series: purified protein. The settings on record: 2 mM MOPS-SO4 pH 7.0, 30 °C, fixed nonsaturating azide (100 mM in table footnote, 60 mM in methods).

Substrate in series [5]: OC(CCl)CCl
Kind of series: dehalogenation, halide release assay, Michaelis-Menten fit. In kind it is biochemical, Agrobacterium tumefaciens. The settings on record: 25 mM Tris-SO4 pH 7.0, 30 °C.
Source text: as §1

Where [6] appears, read: fixed nonsaturating azide (100 mM in table footnote, 60 mM in methods).

With HheC (Agrobacterium tumefaciens; F12Y), in the series on OC(CCl)CCl, the Km worked out at 980 ± 190 µM and the kcat came to 6.30 ± 0.26 s⁻¹. In the series with ClCC1CO1 (setting [6]), this molecule returned a K0.5 of 14.2 ± 0.67 mM.

Consider HheC (Agrobacterium tumefaciens; G14A), for which, in the series on OC(CCl)CCl, the Km worked out at 920 ± 370 µM and the kcat was 0.05 ± 0.00 s⁻¹. This molecule yielded a K0.5 in the series with ClCC1CO1 (fixed 100 mM azide) of 49.5 ± 1.52 mM.

As for HheC (Agrobacterium tumefaciens; T7S), in the series with OC(CCl)CCl, the Km was found to be 810 ± 230 µM and the kcat is 1.37 ± 0.07 s⁻¹. In the series with ClCC1CO1 (setting [6]), this molecule had a K0.5 of 40.3 ± 6.88 mM.

B1: HheG (Ilumatobacter coccineus YM16-304; T13S) (protein)
chain: MSNAENRPVALISMATGYVGPALARTMADRGFDLVLHGTAGDGTMVGVEESFDSQIADLAKRGADVLTISDVDLTTRTGNQSMIERVLERFGRLDSACLVTGLIVTGKFLDMTDDQWAKVKATNLDMVFHGLQAVLPPMVAAGAGQCVVFTSATGGRPDPMVSIYGGTRAGANGIVRAVGLEHARHGVQVNAIGTNYMDFPGFLKASRADGDPERRAMIEAQVPLRRLGTMDELSSVTAGLLDGSNRFQTGQFFDFSGGWGA
notes: E. coli BL21(DE3); homotetramer
As to B1, the K0.5 in series [1] was determined as 44.8 ± 1.29 mM.

B2: HheG (Ilumatobacter coccineus YM16-304; Y18F) (protein)
chain: MSNAENRPVALITMATGFVGPALARTMADRGFDLVLHGTAGDGTMVGVEESFDSQIADLAKRGADVLTISDVDLTTRTGNQSMIERVLERFGRLDSACLVTGLIVTGKFLDMTDDQWAKVKATNLDMVFHGLQAVLPPMVAAGAGQCVVFTSATGGRPDPMVSIYGGTRAGANGIVRAVGLEHARHGVQVNAIGTNYMDFPGFLKASRADGDPERRAMIEAQVPLRRLGTMDELSSVTAGLLDGSNRFQTGQFFDFSGGWGA
notes: as for B1
Turning to B2, in series [2], the K0.5 is reported as 66.4 ± 1.42 mM.

B3: HheG (Ilumatobacter coccineus YM16-304; G20A) (protein)
chain: MSNAENRPVALITMATGYVAPALARTMADRGFDLVLHGTAGDGTMVGVEESFDSQIADLAKRGADVLTISDVDLTTRTGNQSMIERVLERFGRLDSACLVTGLIVTGKFLDMTDDQWAKVKATNLDMVFHGLQAVLPPMVAAGAGQCVVFTSATGGRPDPMVSIYGGTRAGANGIVRAVGLEHARHGVQVNAIGTNYMDFPGFLKASRADGDPERRAMIEAQVPLRRLGTMDELSSVTAGLLDGSNRFQTGQFFDFSGGWGA
notes: as for B1
Turning to B3, the K0.5 in series [3] was 42.2 ± 3.64 mM.

B4: HheG (Ilumatobacter coccineus YM16-304) (protein)
chain: MSNAENRPVALITMATGYVGPALARTMADRGFDLVLHGTAGDGTMVGVEESFDSQIADLAKRGADVLTISDVDLTTRTGNQSMIERVLERFGRLDSACLVTGLIVTGKFLDMTDDQWAKVKATNLDMVFHGLQAVLPPMVAAGAGQCVVFTSATGGRPDPMVSIYGGTRAGANGIVRAVGLEHARHGVQVNAIGTNYMDFPGFLKASRADGDPERRAMIEAQVPLRRLGTMDELSSVTAGLLDGSNRFQTGQFFDFSGGWGA
notes: as for B1
For B4, in series [4], the K0.5 is 39.4 ± 2.69 mM.

B5: HheC (Agrobacterium tumefaciens) (protein)
chain: MSTAIVTNVKHFGGMGSALRLSEAGHTVACHDESFKQKDELEAFAETYPQLKPMSEQEPAELIEAVTSAYGQVDVLVSNDIFAPEFQPIDKYAVEDYRGAVEALQIRPFALVNAVASQMKKRKSGHIIFITSATPFGPWKELSTYTSARAGACTLANALSKELGEYNIPVFAIGPNYLHSEDSPYFYPTEPWKTNPEHVAHVKKVTALQRLGTQKELGELVAFLASGSCDYLTGQVFWLAGGFPMIERWPGMPE
notes: as for B1
Turning to B5, in the series “purified protein”, the K0.5 is listed as 18.8 ± 1.24 mM. In series [5], the Km stood at 450 ± 140 µM and the kcat stood at 1.84 ± 0.11 s⁻¹.
